Reference: doi:10.1101/2024.09.05.611543 (bioRxiv, 2024)

B1: CaKip3 PT (proximal tail only; residues 475-707), His6-MBP fusion (domain or fragment, Candida albicans, UniProt A0A1D8PKA4 475-707, looked up)
chain: KRKDLESKVFKILFESLESTRKAIAKQNQEKWKKYFILAKRKLLLSQKIETELVLEQRDDIDINSLSIASGNESESVFKIYDLCEQLISKIEYQLPQLESQYSQPTDLDYILEDSAMQTLKRLQDEEGWTEHHSAIYRQSIQSMKREVHTDLLLYSSILYDNLIHDLSIFFYIPREIGNFINNISNPTSLNEANQELLYNMTLGLENLLNGEFDSAMEHYAMDYMKNKVESEN
B2: CaKip3 NE-PT (neck extension and proximal tail; residues 444-707), His6-MBP fusion (domain or fragment, Candida albicans, UniProt A0A1D8PKA4 444-707, looked up)
chain: VGSYLKMITEQKQEIEELRARESKMVESTINKRKDLESKVFKILFESLESTRKAIAKQNQEKWKKYFILAKRKLLLSQKIETELVLEQRDDIDINSLSIASGNESESVFKIYDLCEQLISKIEYQLPQLESQYSQPTDLDYILEDSAMQTLKRLQDEEGWTEHHSAIYRQSIQSMKREVHTDLLLYSSILYDNLIHDLSIFFYIPREIGNFINNISNPTSLNEANQELLYNMTLGLENLLNGEFDSAMEHYAMDYMKNKVESEN
B3: CaKip3 MD-PT (motor domain, neck linker, neck extension and proximal tail domain; residues 1-707) (domain or fragment, Candida albicans, UniProt A0A1D8PKA4 1-707, looked up)
chain: MSYPNSLGSPATVTSTSVPTAKQSSISVAVRVRPFTEAESNRLVKIDNDDVFLGDGCLTSDNNNNNNNSNSNGNGNGNGSSAANSSGASTSRRAIFNTLGGLRKIINVVDDRMLIFDPPETNPLTKMQRNAFPNSFKGSRIREHRFVFDRLFDEDCTQDQVYRNTTQPLLDSVLDGYNATVFAYGATGCGKTHTISGTPEDPGVIFLTMKELYNRIEELKDTKIIDISLSYLEIYNETIRDLLNPMTQCKNLVIREDANNKISVSNLSRHRPNSVEEVMQLILEGNKNRTCSPTEANATSSRSHAVLQINVIQKDRTGDITEEHTFATLSIIDLAGSERAAATKNRGARLNEGANINKSLLALGNCINALCDPRRRNHVPYRDSKLTRLLKFSLGGNCKTVMIVCVSPSSQHYDETLNTLKYADRAKEIKTKLIRNQHNLDRHVGSYLKMITEQKQEIEELRARESKMVESTINKRKDLESKVFKILFESLESTRKAIAKQNQEKWKKYFILAKRKLLLSQKIETELVLEQRDDIDINSLSIASGNESESVFKIYDLCEQLISKIEYQLPQLESQYSQPTDLDYILEDSAMQTLKRLQDEEGWTEHHSAIYRQSIQSMKREVHTDLLLYSSILYDNLIHDLSIFFYIPREIGNFINNISNPTSLNEANQELLYNMTLGLENLLNGEFDSAMEHYAMDYMKNKVESEN

Biological target: the molecule itself
Test: SEC-MALS

Protein	stoichiometry N
B1	2
B2	2
B3	2
